Here are results for 1 protein from publication PMC6429369, “Characterization of Stackebrandtia nassauensis GH 20 Beta-Hexosaminidase, a Versatile Biocatalyst for Chitobiose Degradation” (International Journal of Molecular Sciences, 2019).

Substrate in data set [1]: CC(=O)N[C@H]1[C@H](Oc2ccc([N+](=O)[O-])cc2)O[C@H](CO)[C@@H](O)[C@@H]1O
Description: purified protein. The format is biochemical, Stackebrandtia nassauensis. The conditions noted are these: 50 mM phosphate-citric acid buffer pH 6.0, 37 °C, substrate 0.01-10 mM.

Substrate in data set [2]: CC(=O)N[C@H]1[C@H](Oc2ccc([N+](=O)[O-])cc2)O[C@H](CO)[C@H](O)[C@@H]1O
Description: purified protein. The format is biochemical, Stackebrandtia nassauensis. The conditions noted are these: 50 mM phosphate-citric acid buffer pH 6.0, 37 °C, substrate 0.01-10 mM.

B1: SnHex (Stackebrandtia nassauensis GH20 beta-N-acetylhexosaminidase) (Stackebrandtia nassauensis DSM 44728) (protein)
chain: VADPSHAKAATPSTIPALGEWTAASGTYTYSESSRLVVDPDHADELTDEAQTAAADLAALTGTEPEVVTGEPETGDVSLALGGGEPLGAEGYSLDVGDTFAITANADAGAFYGTRTLLQLVKQDKQIPAGTATDVPKKPERGLMVDVGRKYMSVEWLKKHIKDLSYAKLNYFHLHLSDTFGFRLESETHPEVTSEDHYTKAEIRELVDLAAKYHVTLVPEIDVPGHVNAMLAQHPELQLEDQSGNKDPYFLDLSNPDAYTLVEDLIKEYLPLFPGPYWHIGADEYVGDYGKYPQLEAYAKEHYGPDAVGKDAYYGFINWANEIVRDGGKTTRMWNDGIKEGDGTIAPEANIVVDYWSTHGIDPQKLLDRGHTVMNASWTPTYYVLGGTDIDRRWLYEDWNPDLFEKTLTIDDPKRNLGSKIHVWCDHPDAQTEDQITEGIRLPLRGLAQQTWGSPKLVEGYDDFVAIDDAIGRAPGFSSL
notes: full ORF, 1578 bp, 526 residues, about 58 kDa; pET-30a in E. coli BL21(DE3) lacZ-; Ni-NTA and anion exchange; N-terminal His/thrombin/S-tag/enterokinase by cloning (text elsewhere says C-terminal His6), tags kept; primers translate to N-term VADPSH (after ATG), C-term GFSSL-stop
B1: in the data set “purified protein [1]”, the Km came out at 2470 ± 50 µM, the Vmax was 57 µM/min/mg, the kcat was 0.917 ± 0.0615 s⁻¹ and the kcat/Km was 372 ± 33.3 M⁻¹ s⁻¹. Moreover, in the data set “purified protein [2]”, the Michaelis-Menten constant (Km) was determined as 3290 ± 320 µM, the Vmax worked out at 44 µM/min/mg, the kcat turned out to be 0.712 ± 0.0477 s⁻¹ and the kcat/Km came to 217 ± 38.3 M⁻¹ s⁻¹.

The Km is the substrate concentration at which the rate is half of its maximum. In general, Vmax refers to the top rate of the reaction or transport when substrate is in excess. As usually defined, the kcat is the maximal rate divided by the concentration of active sites. Usually kcat/Km stands for the turnover number divided by the Michaelis constant.
